Source: the supplement of paper PMC9170038

Assays:
[1] = test system: K4 kissing-loop RNA reporter; assay: apparent KD of K4 kissing-loop reporter; higher = weaker reporter binding; settings: Eterna round: R107;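 further: bound reporter read as fluorescence of individual clusters on recovered sequencing chips by microscopy, with normalized cluster intensities fitted with a binding model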
Procedure: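 RNA-MaP round R107: designed RNA switches with theophylline, tryptophan, arginine or FMN aptamers are transcribed on-chip within common flanks. They are titrated with a labelled K4 kissing-loop RNA reporter in RNA-MaP buffer (100 mM Tris pH 7.5, 80 mM KCl, 4 mM MgCl2), without ligand or with the indicated ligand. Median apparent KD per design.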

MS2 coat protein = assay: apparent KD of MS2 coat protein; designed switch direction (-1 OFF switch, 1 ON switch): -1; higher = weaker reporter binding
Method in brief: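 RNA switches sharing common flanks were transcribed by stalled E. coli RNA polymerase on Illumina chips. A doubling series of SNAP-549-labelled MS2 coat protein, from 0.7 or 1.5 nM to 3 µM, was applied in Tris-HCl pH 7.5 buffer with KCl, MgCl2, BSA, DTT, tRNA and Tween-20. Each step lasted 0.8–1.5 h at the bottom of the series and 10–20 min at the top. Normalised cluster fluorescence was curve-fitted, giving apparent KD as the per-design median over clusters.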

[2] = input ligand: theophylline 20 uM
[3] = input ligand: tryptophan 2.4 mM
[4] = Eterna round: R95, input ligand: microRNA oligo, concentration not stated
[5] = input ligand: microRNA oligo, concentration not stated
[6] = Eterna round: R95, input ligand: FMN 200 uM
[7] = Eterna round: R95, input ligand: none

| Sequence | apparent KD of MS2 coat protein (MS2 coat protein; [4]) | apparent KD of MS2 coat protein (MS2 coat protein; [6]) | apparent KD of MS2 coat protein (MS2 coat protein; [7]) | apparent KD of MS2 coat protein (MS2 coat protein; input ligand: FMN 200 uM) | apparent KD of MS2 coat protein (MS2 coat protein; input ligand: none) | further results |
| --- | --- | --- | --- | --- | --- | --- |
| AUAACAAUCUGAAGGAGCGAGAAAGCAGUGAUGUUGCAAAGGCGAGUGAUGUUCGCAAUAACUCAGGUAGGUCGCAGAAACAAGA [Same State Arginine B] |  |  |  |  |  | apparent KD of K4 kissing-loop reporter ([1]; input ligand: FMN 200 uM): 142 nM; apparent KD of K4 kissing-loop reporter ([1]; input ligand: arginine 13.2 mM): 142 nM; apparent KD of K4 kissing-loop reporter ([1]; input ligand: none): 187 nM; apparent KD of K4 kissing-loop reporter [1, 2]: 193 nM; apparent KD of K4 kissing-loop reporter [1, 3]: 119 nM |
| UGACUGGACUGAAGGAGCGCUAAACUCCUAGUGAUGUUAGGAAAACGAGACAAAGUCUCGAAGCAGGUAGGUCGCAGUCUAGUCU |  |  |  |  |  | apparent KD of K4 kissing-loop reporter ([1]; input ligand: FMN 200 uM): 172 nM; apparent KD of K4 kissing-loop reporter ([1]; input ligand: arginine 13.2 mM): 147 nM; apparent KD of K4 kissing-loop reporter ([1]; input ligand: none): 177 nM; apparent KD of K4 kissing-loop reporter [1, 2]: 162 nM; apparent KD of K4 kissing-loop reporter [1, 3]: 169 nM |
| GACUGGUUAACAGAUACCAGCCACAAGCGUUGAGGCGGCGGUAAAGUGAUGUUUUAUAAAGGCCCUUGGCAGCUGACUAGUUCGU [theeternabot_exclusion_KL_Theo_B_28] |  |  |  |  |  | apparent KD of K4 kissing-loop reporter ([1]; input ligand: FMN 200 uM): 371 nM; apparent KD of K4 kissing-loop reporter ([1]; input ligand: arginine 13.2 mM): 387 nM; apparent KD of K4 kissing-loop reporter ([1]; input ligand: none): 383 nM; apparent KD of K4 kissing-loop reporter [1, 2]: 381 nM; apparent KD of K4 kissing-loop reporter [1, 3]: 324 nM |
| CGUUCCUCUGUCGAUACCAGCUUCAGUUGGCGGCCAGUGAUGUUGGUAUCGCCGAUGCCAAGCCCUUGGCAGCGACAGGAGACCC [Usleanza] |  |  |  |  |  | apparent KD of K4 kissing-loop reporter ([1]; input ligand: FMN 200 uM): 155 nM; apparent KD of K4 kissing-loop reporter ([1]; input ligand: arginine 13.2 mM): 165 nM; apparent KD of K4 kissing-loop reporter ([1]; input ligand: none): 211 nM; apparent KD of K4 kissing-loop reporter [1, 2]: 95 nM; apparent KD of K4 kissing-loop reporter [1, 3]: 163 nM |
| CGUACUGAAGUGAGGAUAUUGUCUCGGAUACGAAACAAGAAGGCACAUGAGGAUCACCCAUGUAAACAGUACGA [Malc #30 mod 10] (puzzle: Brourd's mod of Exclusion 4) | 15.6 nM |  |  |  |  |  |
| UACAUGAGGAUCACCCAUGUUUUGUCGUGUAUGGUAUUUAUCUAGGAUAUCAAUCUAUUAAUUUAUGAGAAGGAGAAUAUUAAU [JMF's solution 52] (Eterna round: R96, puzzle: Exclusion NG 3) |  |  |  |  |  | apparent KD of MS2 coat protein (MS2 coat protein; [5]): 28.8 nM |
| GCCAGAGGAGGAUAUCUAAUAUAUCACAUGAGGAUCACCCAUGUCCAGCGAAAGCUGGAGGGAGAAGGCCUCUGGC [Fiskers Ex 5 - 23] (puzzle: Exclusion 5) | 98.2 nM | 46 nM | 78.2 nM |  |  |  |
| GAAAAGGUAGGAUAUACGAAAAAAAAGGGUAGAAAAAAGACACAUGAGGAUCACCCAUGUAGAAGGACCAAAAG [salish99_ex2_r3_019] (puzzle: Exclusion 2) | 21.7 nM | 62.5 nM | 30.3 nM |  |  |  |
| UAUGUUAGCACAGGAUAUUGUUAUUUUUUUUUUCAAGAAGGGUGUACAUGAGGAUCACCCAUGUUAUGGUUUUAUCUUUUACAA [JR_ExcNG1_Sub012] (Eterna round: R96, puzzle: Exclusion NG 1) |  |  |  | 877 nM | 809 nM | apparent KD of MS2 coat protein (MS2 coat protein; [5]): 247 nM |
| GAUUAUGCGAGCUUUAGGGACAUGAGGAUCACCCAUGUUCGUCUUAUUGAUCUAGGUACGCUGACGUACCUAGAUCU [JL-sv1-2.35 Brourd mod] (puzzle: Sensor v3, turn-off variant 1) | 33.7 nM | 21.9 nM | 21.8 nM |  |  |  |
| UAAUACAAGUAAAGAUCCUACAUGAGGAUCACCCAUGUGCUCGUCUUGUAAAGUACUAUCACGAAAGUGAUAGUACA [Mat - Sensor v3 - turn-off var 1 - Eli Mod - D85] (puzzle: Sensor v3, turn-off variant 1) | 196 nM | 41 nM | 53.1 nM |  |  |  |
| GAAAAUCGUAAGGAUAUCAGCGAAGAAGUACACUGAGAAGGUAUGACAUGAGGAUCACCCAUGUAGCCCGCUUA [Eternabot (L1) Solution 38] (Eterna round: R97, puzzle: Exclusion 6) |  |  |  | 18 nM | 13.2 nM |  |
| AUUUAACAUGAGGAUCACCCAUGUGAGGAUAUGCGAGUGUAGACUUCGGUCUGAUAGAGCAGAAGGCGCAGAUA [EX1 #9] (Eterna round: R97, puzzle: Exclusion 1) |  |  |  | 48.6 nM | 45 nM |  |
| ACAUGAGGAUCACCCAUGUAAUGAAGGGUACUAUAUUAAACGUAGGAUAUCGAUGUAAGUUUGUUCGAGAAGGACGAUUGCCUU [JR_ExcNG3_Sub053] (Eterna round: R96, puzzle: Exclusion NG 3) |  |  |  | 28.1 nM | 75.8 nM | apparent KD of MS2 coat protein (MS2 coat protein; [5]): 38.6 nM |
| CAGGGCGCAGGAUAUAUCACAAUGCACAUGAGGAUCACCCAUGUCAUCCUCGCGCUUGAGAUAGAAGGGUGAAACC [Eternabot (L1) Solution 65] (Eterna round: R97, puzzle: Exclusion 5) |  |  |  | 21.1 nM | 23.7 nM |  |
| CAGGAAGCGGAGGAUAUGAUGAAAACUCGGCAAUCAGAAGGCCGCACAUGAGGAUCACCCAUGUCGCAAAUACC [Eternabot (Original) Solution 36] (Eterna round: R97, puzzle: Exclusion 6) |  |  |  | 16.6 nM | 15.3 nM |  |
| GGAAAGUGAGGAUAUGGUAAUUUAAUUAUUAAUUAAUUAAUCCAGAAGGCACAUGAGGAUCACCCAUGUAAAUG [Mat - Exclusion 4 - D91] (puzzle: Exclusion 4) | 30 nM |  |  |  |  |  |

| Sequence | apparent KD of MS2 coat protein (MS2 coat protein; [4]) | apparent KD of MS2 coat protein (MS2 coat protein; [6]) | apparent KD of MS2 coat protein (MS2 coat protein; [7]) | apparent KD of MS2 coat protein (MS2 coat protein; input ligand: FMN 200 uM) | apparent KD of MS2 coat protein (MS2 coat protein; input ligand: none) | further results |
| --- | --- | --- | --- | --- | --- | --- |
| CCGCAAAUGAAGGAUAUCGUAUCGGAUACGAUACGAGAAGGUCGAACAUGAGGAUCACCCAUGUGUCCUAGCGG [Fiskers Ex 6 - 41] (puzzle: Exclusion 6) | 11.2 nM | 19.4 nM | 12.1 nM |  |  |  |
| AGCUGUGGCCGAGGAUAUCUAACUUCAAUAACCGAAAUAUAAUCGGACAUGAGGAUCACCCAUGUAGAGAAGGCGGUCUCAGCA [Eli eng2 - 082] (Eterna round: R96, puzzle: Exclusion NG 2) |  |  |  |  |  | apparent KD of MS2 coat protein (MS2 coat protein; [5]): 10.7 nM |
| AUUGUAGUUGUGAGGAUAUCGUAGAUUUAUUGAAACGAGAAGGCACAUGAGGAUCACCCAUGUAAGUUGUAGGU [JR_BMOE4_Sub054] (puzzle: Brourd's mod of Exclusion 4) | 54 nM |  |  |  |  |  |
| AGUAACUAUCACGAAAGUGAUAGUUACAACAAGUGAUAAACAUGAGGAUCACCCAUGUCCUCAUUUGCUCGUUUUAU [Sensor 3 - 15] (puzzle: Sensor v3, turn-off variant 2) | 646 nM | 328 nM | 323 nM |  |  |  |
| UGUGUACAUGAGGAUCACCCAUGUCAGGAUAUCUAGGCUCUCUCACUGACAACAGCCAAGAGAAGGGACGAGGU [EX1 B.7] (Eterna round: R97, puzzle: Exclusion 1) |  |  |  | 36.3 nM | 29.5 nM |  |
| GUCCUCGUGGCGCCUAAACACAUGAGGAUCACCCAUGUACAGGCUUUUUGCCGUCUUAUAAUAAAACCGAGGAUACG [Zaveonqu] (puzzle: Sensor v3, turn-off variant 1) | 121 nM | 20.3 nM | 20.9 nM |  |  |  |
| GCAUCGGCAGGAUAUACGCCGUAUGACAUGAGGAUCACCCAUGUUCCCGAGUCACAGAAAGUAGAAGGGCUGGAUA [Eternabot (L2) Solution 70] (Eterna round: R97, puzzle: Exclusion 5) |  |  |  | 236 nM | 182 nM |  |
| CUUUUGUGAGGAUAUUAGUAGUAAAUAAAUAAAAUUACUACUGAGAAGGCACAUGAGGAUCACCCAUGUUCCUU [salish99_ex4_r3_067] (puzzle: Exclusion 4) | 14 nM |  |  |  |  |  |
| UUAAAUCAUGUAGGAUAUGCGUGGCAAAGCUAUGCAGAAGGACAUGAGGAUCACCCAUGUUCUAGCGUCUGAGAACAGAUGCUA [Mat - Exclusion NG 1 - Mod of JL - D78] (Eterna round: R96, puzzle: Exclusion NG 1) |  |  |  | 566 nM | 47.7 nM | apparent KD of MS2 coat protein (MS2 coat protein; [5]): 24.2 nM |
| GAAAAGGUAGGAUAUACGAAAAGAAAGGGUAGAAAAAAAACACAUGAGGAUCACCCAUGUAGAAGGACCAAAAG [salish99_ex2_r3_027] (puzzle: Exclusion 2) | 26.9 nM | 58.7 nM | 25 nM |  |  |  |
| AGGGAUAAAGGAUAUACAUGAGGAUCACCCAUGUUGAGGAAAGUUAGAUGAGGAGGAAGUAGAAGGUUAGACGA [JR_Exclu3_Sub087] (puzzle: Exclusion 3) | 35.4 nM | 24.3 nM | 42.5 nM |  |  |  |
| UAUCGGGACUGAGGAUAUUCGUUCGAGCACGAAGAAGAAGGUAGUGUCAGGGACAUGAGGAUCACCCAUGUGAUUUCAGUCCCA [JL ViennaUCT Erinle mod 6] (Eterna round: R96, puzzle: Exclusion NG 1) |  |  |  | 91.4 nM | 133 nM | apparent KD of MS2 coat protein (MS2 coat protein; [5]): 102 nM |
| GCUCACGCAGGAUAUACAUGAGGAUCACCCAUGUUCGAAGGGCGUGGGUACAAAGUCUGUAGAAGGGCGAAAAU [Edrereve] (Eterna round: R97, puzzle: Exclusion 3) |  |  |  | 20.6 nM | 17.4 nM |  |
| AAGUAGCAUGCAGGAUAUGGUAAUCGAACGUUACCAGAAGGGCAUGAGGAUCACCCAUGUUCUCAUUUGUAAGAACAGAUGUCU [Ex NG1 #7] (Eterna round: R96, puzzle: Exclusion NG 1) |  |  |  | 251 nM | 94.4 nM | apparent KD of MS2 coat protein (MS2 coat protein; [5]): 110 nM |
| AAGAAACAUGAGGAUCACCCAUGUCAGGAUAUCUCGAAAAGCAUAGAAAUAUGCGAAGAGAGAAGGGACAAGAA [ChP Ext 10-04-2015] (puzzle: Exclusion 1) | 56.1 nM |  |  |  |  |  |
| CGGAGCAGAGGGAGAUCCAACAUGAGGAUCACCCAUGUCUCACAAGCUUUUUGCUCGUCUUAUUGUACCUUGGUGCU [JL ViennaUCT Edcesobi mod 7] (puzzle: Sensor v3, turn-off variant 1) | 11.1 nM | 64.5 nM | 49.1 nM |  |  |  |
